ChEMBL document CHEMBL3769311, “The natural flavone fukugetin as a mixed-type inhibitor for human tissue kallikreins” (Bioorg Med Chem Lett, 2016)

Columns and labels:
[1] = substrate: O=C1CC(c2ccc(O)c(O)c2)Oc2c1c(O)cc(O)c2[C@@H]1C(=O)c2c(O)cc(O)cc2O[C@H]1c1ccc(O)cc1; conditions: Homo sapiens; 8 uM
Description: Mixed-type inhibition of human tissue kallikrein-2 expressed in baculovirus infected insect cells using Abz-KLRSSQ-EDDnp as substrate assessed as substrate Km at 8 uM by Lineweaver-Burk plot analysis

[2] = substrate: O=C1CC(c2ccc(O)c(O)c2)Oc2c1c(O)cc(O)c2[C@@H]1C(=O)c2c(O)cc(O)cc2O[C@H]1c1ccc(O)cc1; conditions: Homo sapiens; 2 uM
Description: Mixed-type inhibition of human tissue kallikrein-2 expressed in baculovirus infected insect cells using Abz-KLRSSQ-EDDnp as substrate assessed as substrate Km at 2 uM by Lineweaver-Burk plot analysis

[3] = substrate: O=C1CC(c2ccc(O)c(O)c2)Oc2c1c(O)cc(O)c2[C@@H]1C(=O)c2c(O)cc(O)cc2O[C@H]1c1ccc(O)cc1; conditions: Homo sapiens; 2 uM; remark: listed apart in the source
[4] = substrate: O=C1CC(c2ccc(O)c(O)c2)Oc2c1c(O)cc(O)c2[C@@H]1C(=O)c2c(O)cc(O)cc2O[C@H]1c1ccc(O)cc1; conditions: Homo sapiens; 4 uM
[5] = substrate: O=C1CC(c2ccc(O)c(O)c2)Oc2c1c(O)cc(O)c2[C@@H]1C(=O)c2c(O)cc(O)cc2O[C@H]1c1ccc(O)cc1; conditions: Homo sapiens; 10 uM
Description: Mixed-type inhibition of human tissue kallikrein-2 expressed in baculovirus infected insect cells using Abz-KLRSSQ-EDDnp as substrate assessed as substrate Km at 10 uM by Lineweaver-Burk plot analysis

[6] = substrate: O=C1CC(c2ccc(O)c(O)c2)Oc2c1c(O)cc(O)c2[C@@H]1C(=O)c2c(O)cc(O)cc2O[C@H]1c1ccc(O)cc1; conditions: Homo sapiens; 10 uM; remark: listed apart in the source
[7] = substrate: O=C1CC(c2ccc(O)c(O)c2)Oc2c1c(O)cc(O)c2[C@@H]1C(=O)c2c(O)cc(O)cc2O[C@H]1c1ccc(O)cc1; conditions: Homo sapiens; 4 uM; remark: listed apart in the source
Description: Mixed-type inhibition of human tissue kallikrein-2 expressed in baculovirus infected insect cells using Abz-KLRSSQ-EDDnp as substrate assessed as substrate Km at 4 uM by Lineweaver-Burk plot analysis

[8] = substrate: O=C1CC(c2ccc(O)c(O)c2)Oc2c1c(O)cc(O)c2[C@@H]1C(=O)c2c(O)cc(O)cc2O[C@H]1c1ccc(O)cc1; conditions: Homo sapiens; 8 uM; remark: listed apart in the source

B1: Kallikrein-2 (Homo sapiens), P20151 (protein)
chain: MWDLVLSIALSVGCTGAVPLIQSRIVGGWECEKHSQPWQVAVYSHGWAHCGGVLVHPQWVLTAAHCLKKNSQVWLGRHNLFEPEDTGQRVPVSHSFPHPLYNMSLLKHQSLRPDEDSSHDLMLLRLSEPAKITDVVKVLGLPTQEPALGTTCYASGWGSIEPEEFLRPRSLQCVSLHLLSNDMCARAYSEKVTEFMLCAGLWTGGKDTCGGDSGGPLVCNGVLQGITSWGPEPCALPEKPAVYTKVVHYRKWIKDTIAANP
- Km [1]: 1.04 µM
- Km [2]: 0.72 µM
- Vmax [3]: 192 µM/s
- Vmax [4]: 144 µM/s
- Km [5]: 1.2 µM
- Vmax [6]: 79 µM/s
- Km [7]: 0.81 µM
- Vmax [8]: 110 µM/s
